Target: GST-EphB1cy, self-phosphorylated in vitro (+ATP) (UniProt P54762)
Sequence (P54762 564-984): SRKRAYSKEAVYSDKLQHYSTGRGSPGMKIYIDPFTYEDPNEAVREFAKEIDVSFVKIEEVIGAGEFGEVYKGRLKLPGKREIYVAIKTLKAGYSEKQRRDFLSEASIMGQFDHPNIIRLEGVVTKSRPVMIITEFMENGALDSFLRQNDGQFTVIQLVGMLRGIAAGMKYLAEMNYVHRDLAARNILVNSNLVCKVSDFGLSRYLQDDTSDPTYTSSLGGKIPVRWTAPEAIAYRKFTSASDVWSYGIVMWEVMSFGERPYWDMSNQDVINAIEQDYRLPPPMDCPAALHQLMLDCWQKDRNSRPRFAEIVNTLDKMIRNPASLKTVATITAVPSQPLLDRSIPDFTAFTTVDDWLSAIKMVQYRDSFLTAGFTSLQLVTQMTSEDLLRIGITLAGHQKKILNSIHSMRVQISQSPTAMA

purified recombinant LMW-PTP (A isoform)
in vitro tyrosine phosphorylation of LMW-PTP: EphB1 receptor tyrosine kinase phosphorylates LMW-PTP in vitro

Reference: US20030157712
